Source: US20120076762A1, “INDUCED PLURIPOTENT STEM CELL GENERATION USING TWO FACTORS AND P53 INACTIVATION” (THE SALK INSTITUTE FOR BIOLOGICAL STUDIES, priority 2009, published 2012)

B1: Bcl-2: mouse Bcl-2 cDNA overexpressed from HIV pBOBI lentiviral vector; BAX antagonist (protein, UniProt P10417 1-236, looked up)
Apoptosis regulator Bcl-2: MAQAGRTGYDNREIVMKYIHYKLSQRGYEWDAGDADAAPLGAAPTPGIFSFQPESNPMPAVHRDMAARTSPLRPLVATAGPALSPVPPVVHLTLRRAGDDFSRRYRRDFAEMSSQLHLTPFTARGRFATVVEELFRDGVNWGRIVAFFEFGGVMCVESVNREMSPLVDNIALWMTEYLNRHLHTWIQDNGGWDAFVELYGPSMRPLFDFSWLSLKTLLSLALVGACITLGAYLGHK
B2: c-Myc: c-Myc retrovirus (pMXs) added to Oct4/Sox2/Klf4 as fourth factor (protein, UniProt P01108 1-454, looked up)
Myc proto-oncogene protein: MDFLWALETPQTATTMPLNVNFTNRNYDLDYDSVQPYFICDEEENFYHQQQQSELQPPAPSEDIWKKFELLPTPPLSPSRRSGLCSPSYVAVATSFSPREDDDGGGGNFSTADQLEMMTELLGGDMVNQSFICDPDDETFIKNIIIQDCMWSGFSAAAKLVSEKLASYQAARKDSTSLSPARGHSVCSTSSLYLQDLTAAASECIDPSVVFPYPLNDSSSPKSCTSSDSTAFSPSSDSLLSSESSPRASPEPLVLHEETPPTTSSDSEEEQEDEEEIDVVSVEKRQTPAKRSESGSSPSRGHSKPPHSPLVLKRCHVSTHQHNYAAPPSTRKDYPAAKRAKLDSGRVLKQISNNRKCSSPRSSDTEENDKRRTHNVLERQRRNELKRSFFALRDQIPELENNEKAPKVVILKKATAYILSIQADEHKLTSEKDLLRKRREQLKHKLEQLRNSGA

Assays:
MEFs = assay: TUNEL staining of apoptotic cells in factor-infected MEFs; assay type: cell-based, mouse; conditions: 2-F, 3-F and 4-F experiments, five days after infection
Procedure: FIG. 13: Bcl-2 increased the efficiency of reprogramming. (FIG. 13a) MEFs were infected by retroviruses encoding 4 transcription factors (Oct4/Sox2/Klf4/c-Myc), 3 factors (Oct4/Sox2/Klf4), or 2 factors (Oct4/Sox2) with lentivirus encoding Bcl-2. Five days after infection, TUNEL-staining was performed. The percentage of apoptotic cells was analyzed (using at least five independent panels) and represented graphically. Error bars indicate s.d. (FIG. 13b) MEFs were infected by retroviruses encoding 3 factors (Oct4/Sox2/Klf4) in combination with mock or Bcl-2 expressing lentivirus. The fold change in the number of Nanog-positive colonies compared to mock (n=3) is shown. Error bars indicate s.d (n=3).

[1] = system: Mouse embryonic fibroblasts (MEFs); assay: Reprogramming of mouse embryonic fibroblasts to iPS cells (Nanog-positive colonies); assay type: cell-based; conditions: MEFs; for Reprogramming efficiency (Nanog-positive colonies / infected cells): 3F (Oct4/Sox2/Klf4), d12-14, error = s.d.; for Direction and grade of change in reprogramming efficiency (arrows): 3F, vs control
Source text: VSV-G viruses were produced in HEK293T cells. For pMX-based and pMSCV-based retroviruses, vectors were transfected using CaPO4 or lipofectamin, following the manufacturers' directions. One day after transfection, culture medium was changed to new medium. For lentivirus, pBOBI-based^34 or pLVTHM-based^37 vectors were transfected by Lipofectamine™ 2000 (Invitrogen) according to the manufacturer's protocol. Six hours after transfection, the DNA-lipofectamine-complex was removed and the medium was replaced the next day. Two days after transfection, the supernatant containing viruses was collected and filtered through a 0.45 μm filter. Mouse iPS cells were induced as previously described^38,39. Briefly, mouse embryonic fibroblasts (passage 3 to 5) were infected (day 0) with pMX-based retroviruses together with pLVTHM-based lentivirus for shRNAs or pBOBI-based lentivirus for Bcl-2. On day 2, cells were passed onto new gelatin-coated plates. Medium was changed every 2 days. On day 12 to 14, cells were fixed for immunofluorescence study. For the Nutlin3a experiments, cells were treated starting from day 4. Reprogramming of human embryonic fibroblasts (IMR90) was done as previously described^2′^3. Briefly, IMR90 fibroblasts (passage 7 to 9) were infected (day 0) with pMSCV-based retroviruses+pLVTHM-based lentiviruses for p53 shRNA. On day 4 or 5, cells were passed onto feeder MEFs. Medium was changed every day. Around 3 weeks after infection, cells were fixed for immunofluorescence studies. Reprogramming of human primary keratinocytes was carried out essentially as described^6. Cells were co-infected with retroviral supernatants containing 3 or 4 reprogramming factors and p53-DD or GFP at a 1:2 ratio. To assess the reprogramming efficiency, cells were trypsinized 3 days after retroviral infection and 10^4 cells were plated onto 6-cm tissue culture dishes on top of irradiated human foreskin fibroblasts with hES cell medium.
The number of Nanog-positive colonies was calculated after immunostaining at d12-14. The total number of Nanog-positive colonies was divided by the number of infected cells. Error numbers indicate s.d. The term “s.d.” refers in the customary sense to standard deviation. The term “s.e.” refers in the customary sense to standard error. Student's t-tests were performed for statistical analysis. p=0.007 (p53-shRNA vs mock, n=4 in each), p=0.0006 (p53−/− vs WT, n=3 in each), p=0.009 (p21-shRNA vs mock, n=4 in each), p=0.0005 (Arf-shRNA vs mock, n=3 in each), p=0.028 (Arf/Ink4a-shRNA vs mock, n=3 in each), p=0.010 (Ctl(solvent) vs Nutlin-3(10 μM), n=3 in each), p=0.045 (3SA/3SA vs WT, n=3 in each), p=0.022 (Bcl-2 vs mock, n=4 in each), and p=0.012 (c-Myc versus mock, n=4 in each).

Molecule | Effect on apoptosis (TUNEL) (MEFs) | Fold increase in reprogramming / Nanog-positive colony formation vs control ([1]; 3-F) [fold] | Reprogramming efficiency (Nanog-positive colonies / infected cells) [1] | Direction and grade of change in reprogramming efficiency (arrows) [1]
B1 | suppressed apoptosis | 4 | 0.268 ± 0.117% vs 0.100 + 0.062% | ↑↑
B2 | – | – | 0.517 ± 0.264% vs 0.114 + 0.054% | ↑↑
